Data set [1] deals with RodZ_(ΔKRRKKR) (S. sonnei) (UniProt Q3YZ36). In words: native gel or EMSA; 3%–12% BN-PAGE (NativePAGE Novex Bis-Tris), CBB without SDS, loading buffer with mild detergents; 5 μl of each purified protein.
Data set [2] concerns the molecule itself. The data set is described as above.
Data set [3] deals with the molecule itself. Put plainly: cross-linking + other: High-Mass MALDI-TOF MS; serial dilutions (1 mg/ml–19.53 μg/ml) in PBS, treated with K200 Stabilizer crosslinker, CovalX HM3 module, 0–1500 kDa; Complex Tracker software corrects for the mass of the crosslinker; monomer measured without crosslinker.

Where “and” joins values, the source holds several entries; their conditions need not be identical. Equal values may be shown once.

With “RodZ_(ΔKRRKKR) (from UniProt Q3YZ36 1-337) (natural protein)”, the stoichiometry N in data set [1] turned out to be 6.

B1: RodZwt (wild-type RodZ of Shigella sonnei, his6-tagged) (natural protein, S. sonnei, UniProt Q3YZ36 1-337, looked up)
chain: MNTEATHDQNEALTTGARLRNAREQLGLSQQAVAERLCLKVSTVRDIEEDKAPADLASTFLRGYIRSYARLVHIPEEELLPGLEKQAPLRAAKVAPMQSFSLGKRRKKRDGWLMTFTWLVLFVVIGLSGAWWWQDHKAQQEEITTMADQSSAELSSNSEQGQSVPLNTSTTTDPATTSTPPASVDTTATNTQTPAVTAPAPAVDPQQNAVVSPSQANVDTAATPVPTAATTPDGAAPLPTDQAGVTTPAADPNALVMNFTADCWLEVTDATGKKLFSGMQRKDGNLNLTGQAPYKLKIGAPAAVQIQYQGKPVDLSRFIRTNQVARLTLNAEQSPAQ
notes: RodZ of Shigella sonnei MS390, whole rodZ amplified with primers from the start codon to the last codon (337 residues); Cloned NdeI-XhoI into pET22b; predicted mass 36.83 kDa; The XhoI site of pET22b probably adds Leu-Glu before the his6 tag (surmise); also called his6-tagged RodZ; purified RodZwt; not shown: His6, C-terminal, kept
Consider B1, for which the “stoichiometry N” value in data set [2] was roughly 6; in data set [3], 6.36 times and 6 times.

B2: RodZ_(1–142) (domain or fragment)
chain: MNTEATHDQNEALTTGARLRNAREQLGLSQQAVAERLCLKVSTVRDIEEDKAPADLASTFLRGYIRSYARLVHIPEEELLPGLEKQAPLRAAKVAPMQSFSLGKRRKKRDGWLMTFTWLVLFVVIGLSGAWWWQDHKAQQEE
notes: RodZ of Shigella sonnei, residues 1-142; not shown: His6, C-terminal, kept
For the molecule B2, in data set [2], the binding result is reported as “binds”.

B3: RodZ_(50–337) (domain or fragment)
chain: DKAPADLASTFLRGYIRSYARLVHIPEEELLPGLEKQAPLRAAKVAPMQSFSLGKRRKKRDGWLMTFTWLVLFVVIGLSGAWWWQDHKAQQEEITTMADQSSAELSSNSEQGQSVPLNTSTTTDPATTSTPPASVDTTATNTQTPAVTAPAPAVDPQQNAVVSPSQANVDTAATPVPTAATTPDGAAPLPTDQAGVTTPAADPNALVMNFTADCWLEVTDATGKKLFSGMQRKDGNLNLTGQAPYKLKIGAPAAVQIQYQGKPVDLSRFIRTNQVARLTLNAEQSPAQ
notes: RodZ of Shigella sonnei, residues 50-337; The forward primer adds a start methionine before D50; calculated mass 31.64 kDa; also called N-terminal deletion RodZ_(50-337); not shown: His6, C-terminal, kept
As to B3, the “stoichiometry N” value in data set [2] was roughly 2; in data set [3], 6.05 times and 6.22 times and 6.03 times.

For the origin of these results see article PMC7018016, “Superstructure formation by RodZ hexamers of Shigella sonnei maintains the rod shape of bacilli” (PLoS ONE, 2020).
